This is an account of results in patent US5296352.

The target in the test is recombinant hirudin variant HV1 (Hirudo medicinalis).

Turning to “Staphylococcus aureus strain V8 protease (from UniProt P0C1U8) (enzyme)”, the extent of digestion (cleavage of rHV1) was determined as 97%.

On to lysyl endopeptidase (enzyme), for which the extent of digestion (cleavage of rHV1) came out at 100%.
